Results: patent US20230303994
Substitutions are numbered along the chain they refer to.

B1: trypsin variant SEQ ID NO: 22 (protein)
chain: IVGGYTCAANSIPYQVSLNSGSHRCGGSLINSQWVVSAAHCYKSRIQVRLGEHNIDVLEGNEQFINAAKIITHPNFNGNTLDNDIMLIKLSSPATLNSRVATVSLPRSCAAAGTECLISGWGNTLSSGSSYPSLLQCLKAPVLSDSSCKSSYPGQITGNMICVGFLEGGKDACQGDSGGPVVCNGQLQGIVSSGYGCAQKNKPGVYTKVCNYVNWIQQTIAAN
B2: trypsin variant SEQ ID NO: 23 (protein)
chain: B1 chain with L125Q
B3: trypsin variant SEQ ID NO: 26 (protein)
chain: B1 chain with L125K, K170G
B4: trypsin variant SEQ ID NO: 27 (protein)
chain: B1 chain with L125K, K170N
B5: trypsin variant SEQ ID NO: 28 (protein)
chain: B1 chain with R24V, L125K
B6: trypsin variant SEQ ID NO: 29 (protein)
chain: B1 chain with R24L, L125K
B7: trypsin variant SEQ ID NO: 30 (protein)
chain: B1 chain with R24S, L125K
B8: trypsin variant SEQ ID NO: 31 (protein)
chain: B1 chain with R24Q, L125K
B9: trypsin variant SEQ ID NO: 32 (protein)
chain: B1 chain with L125K
B10: trypsin variant SEQ ID NO: 5 (protein)
chain: B1 chain with R99L, L125K
B11: trypsin variant SEQ ID NO: 33 (protein)
chain: B1 chain with R107T, L125K
B12: trypsin variant SEQ ID NO: 34 (protein)
chain: B1 chain with L125K, Y131A
B13: trypsin variant SEQ ID NO: 35 (protein)
chain: B1 chain with L125K, Y131L
B14: trypsin variant SEQ ID NO: 37 (protein)
chain: B1 chain with L125K, Y131T
B15: trypsin variant SEQ ID NO: 38 (protein)
chain: B1 chain with L125K, Y131C
B16: trypsin variant SEQ ID NO: 39 (protein)
chain: B1 chain with L125K, Y131N
B17: trypsin variant SEQ ID NO: 40 (protein)
chain: B1 chain with L125K, Y131E
B18: trypsin variant SEQ ID NO: 42 (protein)
chain: B1 chain with L125K
B19: trypsin variant SEQ ID NO: 6 (protein)
chain: B1 chain with R99F, L125K

Target: pre-pro-human insulin

Protein | Activity PPI cleavage | Selectivity
B1 | yes | >90%
B2 | yes | >90%
B3 | yes | >80%
B4 | yes | >80%
B5 | yes | >90%
B6 | yes | >90%
B7 | yes | >70%
B8 | yes | >62.1%
B9 | yes | >90%
B10 | yes | >90%
B11 | yes | >90%
B12 | yes | >90%
B13 | yes | >90%
B14 | yes | >90%
B15 | yes | >80%
B16 | yes | >90%
B17 | yes | >80%
B18 | yes | >90%
B19 | yes | >90%
